# Results: PMC10598214, “SaLT&PepPr is an interface-predicting language model for designing peptide-guided protein degraders” (Communications Biology, 2023)
# B1: SnP_8 uAb (designed binder)
# chain: PTAPPYDSLLVFDYEGGSGSGRLNFGDDIPSALRIAKKKRWNSIEERRIHQESELHSYLSRLIAAERERELEECQRNHEGDEDDSHVRAQQACIEAKHDKYMADMDELFSQVDEKRKKRDIPDYLCGKISFELMREPCITPSGITYDRKDIEEHLQRVGHFDPVTRSPLTQEQLIPNLAMKEVIDAFISENGWVEDY
# modifications: biotinylated with EZ-Link NHS-Biotin
# Biological target: T1, β-catenin (UniProt P35222 1-781)
# T1 sequence (looked up): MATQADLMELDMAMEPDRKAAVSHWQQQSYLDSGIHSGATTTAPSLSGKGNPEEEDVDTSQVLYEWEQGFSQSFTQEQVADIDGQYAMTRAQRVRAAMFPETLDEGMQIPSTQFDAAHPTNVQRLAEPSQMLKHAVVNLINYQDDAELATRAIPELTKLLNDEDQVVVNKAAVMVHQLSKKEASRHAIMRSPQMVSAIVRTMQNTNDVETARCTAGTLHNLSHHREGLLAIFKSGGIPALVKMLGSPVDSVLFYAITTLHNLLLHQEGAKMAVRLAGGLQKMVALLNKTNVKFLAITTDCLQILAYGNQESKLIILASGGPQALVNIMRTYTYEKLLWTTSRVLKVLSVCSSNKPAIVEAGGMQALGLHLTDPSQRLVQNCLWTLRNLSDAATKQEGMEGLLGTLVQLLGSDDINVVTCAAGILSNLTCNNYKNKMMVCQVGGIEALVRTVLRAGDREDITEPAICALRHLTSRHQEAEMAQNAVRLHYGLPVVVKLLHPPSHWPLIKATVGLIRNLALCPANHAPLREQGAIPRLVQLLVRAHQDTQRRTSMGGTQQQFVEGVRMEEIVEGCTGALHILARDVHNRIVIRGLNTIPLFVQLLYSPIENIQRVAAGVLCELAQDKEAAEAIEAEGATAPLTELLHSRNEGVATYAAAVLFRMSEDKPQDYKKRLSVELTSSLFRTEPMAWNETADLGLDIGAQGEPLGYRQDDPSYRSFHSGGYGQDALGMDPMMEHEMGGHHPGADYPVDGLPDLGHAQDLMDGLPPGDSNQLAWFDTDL
# Experiment: cell-based or functional assay
binder,measurement,value
B1,"degradation of endogenous cytosolic β-catenin in transfected DLD1 cells (immunoblot densitometry, relative to non-transfected control)",> 60%
